For orientation: Km means the concentration of substrate that gives half-maximal velocity. One may read the kcat as the number of substrate molecules converted per active site and unit of time at saturation.

Among the data in paper PMC7954740, “Degradation of the low-calorie sugar substitute 5-ketofructose by different bacteria” (Applied Microbiology and Biotechnology, 2021) are Km and kcat values, retold here.

Holding throughout (assay): purified protein
Series [1] has as its system O=C(CO)[C@@H](O)[C@H](O)C(=O)CO. Type of series: biochemical, Gluconobacter oxydans. The settings on record: NADPH co-substrate, pH 7, 35 °C (optimum).
Substrate in series [2]: O=C(CO)[C@@H](O)[C@H](O)C(=O)CO
The class given is biochemical, Gluconobacter oxydans. The note with it: NADPH co-substrate, pH 7, 30 °C (optimum).

Substrate in series [3]: NC(=O)C1=CN([C@@H]2O[C@H](COP(=O)(O)OP(=O)(O)OC[C@H]3O[C@@H](n4cnc5c(N)ncnc54)[C@H](OP(=O)(O)O)[C@@H]3O)[C@@H](O)[C@H]2O)C=CC1
The note with it: 5-KF co-substrate, pH 7.0, 30 °C, varied: cofactor.

Substrate in series [4]: O=C(CO)[C@@H](O)[C@H](O)C(=O)CO
The note with it: NADPH co-substrate, pH 7.0, 30 °C, potassium phosphate.

Substrate in series [5]: NC(=O)C1=CN([C@@H]2O[C@H](COP(=O)(O)OP(=O)(O)OC[C@H]3O[C@@H](n4cnc5c(N)ncnc54)[C@H](OP(=O)(O)O)[C@@H]3O)[C@@H](O)[C@H]2O)C=CC1
Type of series: biochemical, Clostridium pasteurianum. The note with it: 5-KF co-substrate, pH 6, 40 °C (optimum), varied: cofactor.

Substrate in series [6]: O=C(CO)[C@@H](O)[C@H](O)C(=O)CO
The class given is biochemical, Clostridium pasteurianum. The settings on record: NADPH co-substrate, pH 6, 40 °C (optimum).

Turning to GOX0644 (Gluconobacter oxydans 621H), in series [1], the Michaelis-Menten constant (Km) is 4000 ± 800 µM and the kcat worked out at 18.9 ± 1.2 s⁻¹.

B1: GOX1432 (Gluconobacter oxydans 621H) (protein)
chain: MITRETLKSLPANVQAPPYDIDGIKPGIVHFGVGNFFRAHEAFYVEQILEHAPDWAIVGVGLTGSDRSKKKAEEFKAQDCLYSLTETAPSGKSTVRVMGALRDYLLAPADPEAVLKHLVDPAIRIVSMTITEGGYNINETTGAFDLENAAVKADLQNPEKPSTVFGYVVEALRRRRDAGGKAFTVMSCDNLRHNGNVARKAFLGYAKARDPELAKWIEENATFPNGMVDRITPTVSAEIAKKLNAASGLDDDLPLVAEDFHQWVLEDRFANGRPPLEKAGVQLVDDVTDWEHVKIRMLNAGHITLCFPGILVGYENVDDAIEDKDLRGNLENYLNKDVIPTLKAPPGMTLEGYRDSVISRFSNKAMSDQTLRIASDGCSKIQVFWTETVRRAIECKRDLSRIAFGIASYLEMLRGRDEKGGTYESSEPTYGEAQKKLAKADDFESALKLPAFDGWRDLDTSELDQKVIALRKVIREKGVKAAIPA
In the case of B1, in series [2], the Km is 42000 ± 5400 µM and the kcat was determined as 214.6 ± 7.5 s⁻¹.

B2: TM-KFR (Tatumella morbirosei) (protein)
chain: AEQQNFLSELTGSFSSPCNENPTVAMMEEAYRHQGINARYINCDVGKQQLEMAVAGAKAMGWRGFNCSIPNKQAILSYIDEVGTSAKVIGAVNCVIIREGKLTGENTDGKGFVEALKQQIDPEGKKLALLGAGGAARAIAVESALAGVSEITIINRDKAKGEALAELINANTDATATYVEWSSGLKVDKNFDILVNATSVGLDDAEAMPDIDTDSLSEELFVADVIPNPPQTALLRAASDKGCRTLNGLNMLVNQGALNLAYWFDTTADKAPMRKVLQTLFTG
As to B2, the Km in series [3] came to 20.4 ± 11.5 µM. In series [4], the Km amounted to 6400 ± 600 µM and the turnover number (kcat) turned out to be 913.9 ± 85.2 s⁻¹.

B3: CP-AKR (Clostridium pasteurianum DSM 525 = ATCC 6013) (protein)
chain: MVKSIKDVITLNNGVEIPQHGFGVYLITDEEKAYKAINKALEVGYRAFDTAQFYENEPLLGKILNESSLSRDELFITTKVANYNQGYDSTLSTVEQSLKDLRVDQLDLLLIHWPSKKRFFETWRAMEKLYNEKLVKAIGVSNYEIHHLEELISNSDIKPVIDQVESHPYLIQQELKDYVDKNNIAFQAWSPLGRGAVLKDPIIKIIAEQHNKSIAQVIIRWHLQKGNIVIPKSITPSRIEENADVYDFALTEEEMKIIDALNRAERTGDDPDSIYFQM
Regarding B3, the Km in series [5] was 12.4 ± 3.8 µM; in series [6], 1300 ± 200 µM. For the same molecule, in series [6], the catalytic constant (kcat) was 29.3 ± 4.3 s⁻¹.
